What was measured:
full length human 5T4 [1] = target: T1, full length human 5T4 (human, UniProt Q13641 32-420); test: flow cytometry, HeLa cells, PE anti-human IgG F(ab')2, MFI PE
T1 construct: Uniprot Q13641; Used here also for endogenous 5T4 on the human tumour cell lines
T1 sequence: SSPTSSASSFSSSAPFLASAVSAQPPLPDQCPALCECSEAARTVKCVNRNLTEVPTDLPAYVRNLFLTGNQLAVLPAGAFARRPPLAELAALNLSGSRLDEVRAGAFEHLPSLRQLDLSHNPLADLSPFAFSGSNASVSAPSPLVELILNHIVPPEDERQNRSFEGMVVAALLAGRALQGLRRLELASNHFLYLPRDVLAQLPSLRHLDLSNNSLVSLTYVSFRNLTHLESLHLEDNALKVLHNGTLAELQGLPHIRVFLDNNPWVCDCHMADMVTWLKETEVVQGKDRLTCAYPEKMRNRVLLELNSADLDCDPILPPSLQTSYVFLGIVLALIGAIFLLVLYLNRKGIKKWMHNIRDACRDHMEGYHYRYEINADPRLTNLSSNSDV

full length human 5T4 [2] = target: T1, full length human 5T4; test: flow cytometry, MDA-MB-231 cells, PE anti-human IgG F(ab')2, MFI PE
[3] = target: T2, full length cynomolgus monkey 5T4 (cynomolgus monkey, UniProt Q4R8Y9 35-420); test: flow cytometry, HEK-293 cells transfected with cynomolgus monkey 5T4 (right panel), PE anti-human IgG F(ab')2, MFI PE
T2 construct: Uniprot Q4R8Y9; also called cynomolgus monkey 5T4 on HEK-293 cells
T2 sequence: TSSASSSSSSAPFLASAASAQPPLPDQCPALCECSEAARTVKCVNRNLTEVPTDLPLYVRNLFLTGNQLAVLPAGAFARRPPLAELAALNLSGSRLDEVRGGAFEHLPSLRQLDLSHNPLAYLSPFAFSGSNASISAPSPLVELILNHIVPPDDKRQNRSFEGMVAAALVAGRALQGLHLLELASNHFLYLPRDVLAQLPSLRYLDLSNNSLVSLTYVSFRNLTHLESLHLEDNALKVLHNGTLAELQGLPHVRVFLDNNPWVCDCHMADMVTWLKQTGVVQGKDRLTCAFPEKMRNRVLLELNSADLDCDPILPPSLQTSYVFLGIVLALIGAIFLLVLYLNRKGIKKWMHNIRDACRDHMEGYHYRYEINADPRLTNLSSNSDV

full length human 5T4 [4] = target: T1, full length human 5T4; test: flow cytometry, HeLa cells, PE anti-human IgG F(ab')2, MFI PE; remark: listed apart in the source
full length human 5T4 [5] = target: T1, full length human 5T4; test: flow cytometry, MDA-MB-231 cells, PE anti-human IgG F(ab')2, MFI PE; remark: listed apart in the source
full length human 5T4 [6] = target: T1, full length human 5T4; test: flow cytometry, HeLa cells (left panel), FITC anti-human IgG F(ab')2, MFI FITC
Experimental: (§1) After washing twice in staining buffer, cells were incubated in 50 μL secondary antibody at 4° C. for 30 min. […] Next, cells were washed twice in staining buffer, re-suspended in 120 μL staining buffer and analyzed on a BD LSRFortessa FACS (BD Biosciences, USA). Binding curves were analyzed using non-linear regression (sigmoidal dose-response with variable slope) using GraphPad Prism V7.02 software (GraphPad Software, San Diego, Calif., USA).

full length human 5T4 [7] = target: T1, full length human 5T4; test: flow cytometry, MDA-MB-231 cells (right panel), FITC anti-human IgG F(ab')2, MFI FITC
Experimental: as §1

full length human 5T4 [8] = target: T1, full length human 5T4; test: flow cytometry, HEK-293 cells transfected with human 5T4 (left panel), PE anti-human IgG F(ab')2, MFI PE
[9] = target: T2, full length cynomolgus monkey 5T4; test: flow cytometry, HEK-293 cells transfected with cynomolgus monkey 5T4 (right panel), PE anti-human IgG F(ab')2, MFI PE; remark: listed apart in the source
[10] = target: T2, full length cynomolgus monkey 5T4; test: flow cytometry, HEK-293 cells transfected with full length cynomolgus monkey 5T4 (right panel), FITC anti-human IgG F(ab')2, MFI FITC
Experimental: (§2) Binding of monovalent and bivalent 5T4 antibodies was analysed using HEK-293 cells transiently transfected with full length human (left panels) or cynomolgus monkey 5T4 (right panels). Cells were incubated with increasing concentrations of antibodies, as indicated. After secondary labelling with FITC conjugated goat-anti-human IgG F(ab′)2, binding was analysed by flow cytometry. […] Data are presented as mean fluorescence intensity (MFI) values of two technical replicates±SD.
(§3) Experiments were performed in technical duplicate. After washing twice in staining buffer, cells were incubated in 50 μL secondary antibody at 4° C. for 30 min. […] Cells were washed twice in staining buffer, re-suspended in 30 μL staining buffer and analyzed on an iQue Screener (Intellicyt Corporation, USA). Binding curves were analyzed using non-linear regression (sigmoidal dose-response with variable slope) using GraphPad Prism V7.02 software (Graph Pad Software, San Diego, Calif., USA).

full length human 5T4 [11] = target: T1, full length human 5T4; test: flow cytometry, HeLa cells, PE anti-human IgG F(ab')2, MFI PE; remark: listed apart in the source
full length human 5T4 [12] = target: T1, full length human 5T4; test: flow cytometry, MDA-MB-231 cells, PE anti-human IgG F(ab')2, MFI PE; remark: listed apart in the source
full length human 5T4 [13] = target: T1, full length human 5T4; test: flow cytometry, HeLa cells (left panel), FITC anti-human IgG F(ab')2, MFI FITC; remark: listed apart in the source
Experimental: as §1

full length human 5T4 [14] = target: T1, full length human 5T4; test: flow cytometry, MDA-MB-231 cells (right panel), FITC anti-human IgG F(ab')2, MFI FITC; remark: listed apart in the source
Experimental: as §1

full length human 5T4 [15] = target: T1, full length human 5T4; test: flow cytometry, HEK-293 cells transfected with human 5T4 (left panel), PE anti-human IgG F(ab')2, MFI PE; remark: listed apart in the source
[16] = target: T2, full length cynomolgus monkey 5T4; test: flow cytometry, HEK-293 cells transfected with cynomolgus monkey 5T4 (right panel), PE anti-human IgG F(ab')2, MFI PE; remark: listed apart in the source
full length human 5T4 [17] = target: T1, full length human 5T4; test: flow cytometry, HEK-293 cells transfected with full length human 5T4 (left panel), FITC anti-human IgG F(ab')2, MFI FITC
Experimental: as §2, §3

[18] = target: T2, full length cynomolgus monkey 5T4; test: flow cytometry, HEK-293 cells transfected with full length cynomolgus monkey 5T4 (right panel), FITC anti-human IgG F(ab')2, MFI FITC; remark: listed apart in the source
Experimental: as §2, §3

full length human 5T4 [19] = target: T1, full length human 5T4; test: flow cytometry, HEK-293 cells transfected with full length human 5T4 (left panel), FITC anti-human IgG F(ab')2, MFI FITC; remark: listed apart in the source
Experimental: as §2, §3

[20] = target: T2, full length cynomolgus monkey 5T4; test: flow cytometry, HEK-293 cells transfected with full length cynomolgus monkey 5T4 (right panel), FITC anti-human IgG F(ab')2, MFI FITC; remark: listed apart in the source
Experimental: as §2, §3

[21] = target: T2, full length cynomolgus monkey 5T4; test: flow cytometry, HEK-293 cells transfected with cynomolgus monkey 5T4 (right panel), PE anti-human IgG F(ab')2, MFI PE; remark: listed apart in the source

B1: bsIgG1-huCD3-H101G-FEALx5T4-106-FEAR (bispecific antibody)
heavy 1: not shown
VL: not shown
heavy 2: EVQLVQSGAEVKKPGESLKISCKGSGYRFTSYWIGWVRQMPGKGLEWMGIIYPGDSDARYSPSFQGQVTISADKSISTAYLQWSSLKASDTGMYYCARSVLFDYWGQGTLVTVSSASTKGPSVFPLAPSSKSTSGGTAALGCLVKDYFPEPVTVSWNSGALTSGVHTFPAVLQSSGLYSLSSVVTVPSSSLGTQTYICNVNHKPSNTKVDKRVEPKSCDKTHTCPPCPAPEFEGGPSVFLFPPKPKDTLMISRTPEVTCVVVAVSHEDPEVKFNWYVDGVEVHNAKTKPREEQYNSTYRVVSVLTVLHQDWLNGKEYKCKVSNKALPAPIEKTISKAKGQPREPQVYTLPPSREEMTKNQVSLTCLVKGFYPSDIAVEWESNGQPENNYKTTPPVLDSDGSFFLYSRLTVDKSRWQQGNVFSCSVMHEALHNHYTQKSLSLSPGK
light: AIQLTQSPSSLSASVGDRVTITCRASQGISSALAWYQQKPGKAPKLLIYDVSNLESGVPSRFSGSGSGTDFTLTISSLQPEDFATYYCQQFNSYPHTFGQGTKLEIKRTVAAPSVFIFPPSDEQLKSGTASVVCLLNNFYPREAKVQWKVDNALQSGNSQESVTEQDSKDSTYSLSSTLTLSKADYEKHKVYACEVTHQGLSSPVTKSFNRGEC
- EC50 (read off the curve) (full length human 5T4 [1]): ~0.1 µg/mL
- EC50 (read off the curve) (full length human 5T4 [2]): ~0.1 µg/mL
- binding result [3]: binds

B2: bsIgG1-huCD3-H101G-FEALx5T4-207-FEAR (bispecific antibody)
heavy 1: not shown
VL: not shown
heavy 2: QVQLQQWGAGLLKPSETLSLTCAVYGGSFSGYYWTWIRQPPGKGLEWIGEIDHSESTNYNPSLKSRVTISVDTSKNQFSLKLSSVTAADTAVYYCAGWFGELYHYYYGMDVWGQGTTVTVSSASTKGPSVFPLAPSSKSTSGGTAALGCLVKDYFPEPVTVSWNSGALTSGVHTFPAVLQSSGLYSLSSVVTVPSSSLGTQTYICNVNHKPSNTKVDKRVEPKSCDKTHTCPPCPAPEFEGGPSVFLFPPKPKDTLMISRTPEVTCVVVAVSHEDPEVKFNWYVDGVEVHNAKTKPREEQYNSTYRVVSVLTVLHQDWLNGKEYKCKVSNKALPAPIEKTISKAKGQPREPQVYTLPPSREEMTKNQVSLTCLVKGFYPSDIAVEWESNGQPENNYKTTPPVLDSDGSFFLYSRLTVDKSRWQQGNVFSCSVMHEALHNHYTQKSLSLSPGK
light: not shown
- EC50 (read off the curve) (full length human 5T4 [4]): ~0.04 µg/mL
- EC50 (read off the curve) (full length human 5T4 [5]): ~0.04 µg/mL
- EC50 (read off the curve) (full length human 5T4 [6]): ~0.05 µg/mL
- EC50 (read off the curve) (full length human 5T4 [7]): ~0.1 µg/mL
- EC50 (read off the curve) (full length human 5T4 [8]): ~0.05 µg/mL
- EC50 (read off the curve) [9]: ~0.03 µg/mL
- EC50 (read off the curve) [10]: ~0.1 µg/mL

B3: bsIgG1-huCD3-H101G-FEALx5T4-226-FEAR (bispecific antibody)
heavy 1: not shown
VL: not shown
heavy 2: QVQLQQWGAGLLKPSETLSLTCAVYGGSFSGYYWSWIRQPPGKGLEWIGEIDHSGSTNYNPSLKSRVTISVDTSKNQFSLKLSSVTAADTAVYYCAAWFGELWDYYYGMDVWGQGTTVTVSSASTKGPSVFPLAPSSKSTSGGTAALGCLVKDYFPEPVTVSWNSGALTSGVHTFPAVLQSSGLYSLSSVVTVPSSSLGTQTYICNVNHKPSNTKVDKRVEPKSCDKTHTCPPCPAPEFEGGPSVFLFPPKPKDTLMISRTPEVTCVVVAVSHEDPEVKFNWYVDGVEVHNAKTKPREEQYNSTYRVVSVLTVLHQDWLNGKEYKCKVSNKALPAPIEKTISKAKGQPREPQVYTLPPSREEMTKNQVSLTCLVKGFYPSDIAVEWESNGQPENNYKTTPPVLDSDGSFFLYSRLTVDKSRWQQGNVFSCSVMHEALHNHYTQKSLSLSPGK
light: not shown
- EC50 (read off the curve) (full length human 5T4 [11]): ~0.04 µg/mL
- EC50 (read off the curve) (full length human 5T4 [12]): ~0.04 µg/mL
- EC50 (read off the curve) (full length human 5T4 [13]): ~0.02 µg/mL
- EC50 (read off the curve) (full length human 5T4 [14]): ~0.09 µg/mL
- EC50 (read off the curve) (full length human 5T4 [15]): ~0.09 µg/mL
- EC50 (read off the curve) [16]: ~0.06 µg/mL
- EC50 (read off the curve) (full length human 5T4 [17]): ~0.2 µg/mL
- EC50 (read off the curve) [18]: ~0.1 µg/mL

B4: bsIgG1-huCD3-H101G-FEALx5T4-H8-FEAR (bispecific antibody)
heavy 1: not shown
VL 1: not shown
heavy 2: EVQLQQSGPDLVKPGASVKISCKASGYSFTGYYMHWVKQSHGKSLEWIGRINPNNGVTLYNQKFKDKAILTVDKSSTTAYMELRSLTSEDSAVYYCARSTMITNYVMDYWGQVTSVTVSSASTKGPSVFPLAPSSKSTSGGTAALGCLVKDYFPEPVTVSWNSGALTSGVHTFPAVLQSSGLYSLSSVVTVPSSSLGTQTYICNVNHKPSNTKVDKRVEPKSCDKTHTCPPCPAPEFEGGPSVFLFPPKPKDTLMISRTPEVTCVVVAVSHEDPEVKFNWYVDGVEVHNAKTKPREEQYNSTYRVVSVLTVLHQDWLNGKEYKCKVSNKALPAPIEKTISKAKGQPREPQVYTLPPSREEMTKNQVSLTCLVKGFYPSDIAVEWESNGQPENNYKTTPPVLDSDGSFFLYSRLTVDKSRWQQGNVFSCSVMHEALHNHYTQKSLSLSPGK
VL 2: SIVMTQTPTFLLVSAGDRVTITCKASQSVSNDVAWYQQKPGQSPTLLISYTSSRYAGVPDRFIGSGYGTDFTFTISTLQAEDLAVYFCQQDYNSPPTFGGGTKLEIK
- binding result (full length human 5T4 [19]): binds
- EC50 (read off the curve) [20]: ~0.1 µg/mL

B5: IgG1-5T4-076-FEAR (antibody, V domains shown)
VH: QVQLVQSGAEVKKPGASVKVSCKASGYTFTSYGISWVRQAPGQGLEWMGWISAYNGNTNYAQKLQGRVTMTTDTSTRTAYMELRSLRSDDTAVYYCARDPGYFDWLYGDYWGQGTLVTVSS
VL: AIQLTQSPSSLSASVGDRVTITCRASQGISSALAWYQQKPGKAPKLLIYDASSLESGVPSRFSGSGSGTDFTLTISSLQPEDFATYYCQQFNSYPRTFGQGTKVEIKR
notes: Human IgG1 FEAR, kappa (as for m12)
- EC50 (read off the curve) [21]: ~0.01 µg/mL

B6: IgG1-5T4-207-FEAR (antibody, V domains shown)
VH: QVQLQQWGAGLLKPSETLSLTCAVYGGSFSGYYWTWIRQPPGKGLEWIGEIDHSESTNYNPSLKSRVTISVDTSKNQFSLKLSSVTAADTAVYYCAGWFGELYHYYYGMDVWGQGTTVTVSS
VL: EIVLTQSPATLSLSPGERATLSCRASQSVSSYLAWYQQKPGQAPRLLIYDASNRATGIPARFSGSGSGTDFTLTISSLEPEDFAVYYCQQRSNWPLTFGGGTKVEIKR
notes: as for B5
- EC50 (read off the curve) (full length human 5T4 [5]): ~0.02 µg/mL
- EC50 (read off the curve) [9]: ~0.1 µg/mL

From US20200277397A1 (Genmab, published 2020)
